Biological target: microtubules (MT fraction from mouse brain) (mouse (endogenous in mouse brain)) (UniProt P68369)
Assay: co-sedimentation

“recombinant human tau lacking the proline-rich region 2 (ΔPRR2) (from UniProt P10636-6 1-383) (natural protein)” was tested, and the MT-bound fraction was 0.839 and the MT-unbound fraction was 0.161.
With “recombinant human tau lacking both PRR2 and MTBD (ΔPRR2-MTBD) (from UniProt P10636-6 1-383) (natural protein)” the MT-bound fraction was 0.059 and the MT-unbound fraction was 0.941.
“recombinant human tau, 0N4R variant (WT tau) (from UniProt P10636-6 1-383) (natural protein)” gave an MT-bound fraction of 0.989.

— article PMC6743362
